The target in test [1] is human MS4A4A (human) (UniProt Q96JQ5). The experiment in a line: functional affinity, FACS titration on stably transfected 300.19 cells.
Test [2] shares this target. The test can be described thus: flow cytometry (anti-mouse IgG Fc-APC) on 300.19 cells transfected with human MS4A4A (Plate D); untransfected 300.19 cells (Plate C): mean 110.
For test [3], the target named is cynomolgus (cyno) MS4A4A (cynomolgus). The experiment in a line: flow cytometry (anti-mouse IgG Fc-APC) on 300.19 cells transfected with cyno MS4A4A (Plate E); untransfected 300.19 cells (Plate C): mean 110. On the technique in general: Flow cytometry measures light scatter and fluorescence of single cells or particles in a stream.
Test [4] concerns the target human MS4A4A (human) (UniProt Q96JQ5). The test can be described thus: flow cytometry (anti-mouse IgG Fc-APC) on U937 cells transfected with human MS4A4A (Plate B); untransfected U937 cells (Plate A): mean 259.
Test [5] addresses cynomolgus (cyno) MS4A4A (cynomolgus). The experiment in a line: flow cytometry (anti-mouse IgG Fc-APC) on HEK293 cells transiently transfected with cyno MS4A4A (cy4A_293); 293 parental cells: mean 131.
The target in test [6] is human MS4A4A (human) (UniProt Q96JQ5). The test can be described thus: flow cytometry (anti-mouse IgG Fc-APC) on HEK293 cells transiently transfected with human MS4A4A (h4A_293); 293 parental cells: mean 131.
Test [7] shares this target. The experiment in a line: flow cytometry (anti-mouse IgG Fc-APC) on U937 cells transfected with human MS4A4A (Plate B); untransfected U937 cells (Plate A): mean 387.
Test [8] deals with human MS4A4A-GFP 4A.Ala.35 (ECL2 deletion of GNS) (human) (UniProt Q96JQ5). The experiment in a line: FACS, HEK293T.
The target of test [9] is cynomolgus (cyno) MS4A4A (cynomolgus). The test can be described thus: flow cytometry (anti-mouse IgG Fc-APC) on 300.19 cells transfected with cyno MS4A4A (Plate E); untransfected 300.19 cells (Plate C): mean 111; no primary antibody on Plate E: 122.
The target of test [10] is human MS4A4A (human) (UniProt Q96JQ5). The test can be described thus: flow cytometry (anti-mouse IgG Fc-APC) on U937 cells transfected with human MS4A4A (Plate B); untransfected U937 cells (Plate A): mean 240; no primary antibody on Plate B: 246.
For test [11] the target is unchanged. The experiment in a line: flow cytometry (anti-mouse IgG Fc-APC) on 300.19 cells transfected with human MS4A4A (Plate D); untransfected 300.19 cells (Plate C): mean 111; no primary antibody on Plate D: 177.
Test [12] has the same target. The experiment in a line: flow cytometry (anti-mouse IgG Fc-APC) on U937 cells transfected with human MS4A4A (Plate B); untransfected U937 cells (Plate A): mean 229; no primary antibody on Plate B: 246.
For test [13] the target is unchanged. The test can be described thus: flow cytometry (anti-mouse IgG Fc-APC) on 300.19 cells transfected with human MS4A4A (Plate D); untransfected 300.19 cells (Plate C): mean 106; no primary antibody on Plate D: 177.
Test [14] deals with cynomolgus (cyno) MS4A4A (cynomolgus). The experiment in a line: flow cytometry (anti-mouse IgG Fc-APC) on 300.19 cells transfected with cyno MS4A4A (Plate E); untransfected 300.19 cells (Plate C): mean 106; no primary antibody on Plate E: 122.
Test [15] concerns the target human MS4A4A (human) (UniProt Q96JQ5). The experiment in a line: flow cytometry (anti-mouse IgG Fc-APC) on U937 cells transfected with human MS4A4A (Plate B); untransfected U937 cells (Plate A): mean 247; no primary antibody on Plate B: 246.

Drawing on patent US20230126400A1, this text covers Kd, Mean : APC-A and % binding compared to wildtype MS4A4A for six substances.

As a reminder, the Kd is the free concentration of one partner at which half of the binding sites on the other are occupied at equilibrium, for simple one-to-one binding. High values mean weaker binding, low ones tighter binding. anti-MS4A4A antibody 3F2 (Millipore) gave a Kd in the test with human MS4A4A (human) [1] of 9.5 nM. Moreover, the Mean : APC-A is 21100 in the test with human MS4A4A (human) [2], 128 in test [3] and 14300 with human MS4A4A (human) [4].

Turning to anti-MS4A4A antibody 4H2 (Kerafast), in the test with human MS4A4A (human) [1], the Kd turned out to be 10 nM.

anti-MS4A4A antibody 5C12 (BioLegend) had a Kd in the test with human MS4A4A (human) [1] of 27 nM. For the same substance, the Mean : APC-A was 158 in test [5]; 19500 with human MS4A4A (human) [2]; 7160 in the test with human MS4A4A (human) [6]; 15000 in the test with human MS4A4A (human) [7]; 129 in test [3]. Also, the % binding compared to wildtype MS4A4A in test [8] was 1%.

For the substance msIgG1 Isotype Ctrl (antibody), the Mean : APC-A turned out to be 116 in test [9], 248 with human MS4A4A (human) [10] and 181 with human MS4A4A (human) [11].

msIgG2a Isotype Ctrl (antibody): the values for the Mean : APC-A (with human MS4A4A (human) [12]; with human MS4A4A (human) [13]; in test [14]) were 243, 155 and 109, respectively.

msIgG2b Isotype Ctrl (antibody): the Mean : APC-A in [9] was 107; with human MS4A4A (human) [15], 234; with human MS4A4A (human) [11], 155.
